± gives the uncertainty stated by the source.
B1: Retinoic acid receptor RXR-alpha, residues 132 to 208; numbered along this chain, P19793 (parent)
chain: KHICAICGDRSSGKHYGVYSCEGCKGFFKRTVRKDLTYTCRDNKDCLIDKRQRNRCQYCRYQKCLAMGMKREAVQEE

Variants of: B1
Assay: abundance fitness (aPCA) (normalised: wild type 0, dead -1); higher = more abundant; growth selection in yeast, the domain comes from the species named
Conditions: Homo sapiens

Row | Variant | abundance fitness
1 | KHIAAICGDRSSGKHYGVYSCEGCKGFFKRTVRKDLTYTCRDNKDCLIDKRQRNRCQYCRYQKCLAMGMKREAVQEE [C4A] | -0.895 ± 0.063
2 | KHIDAICGDRSSGKHYGVYSCEGCKGFFKRTVRKDLTYTCRDNKDCLIDKRQRNRCQYCRYQKCLAMGMKREAVQEE [C4D] | -0.807 ± 0.11
3 | FHICAICGDRSSGKHYGVYSCEGCKGFFKRTVRKDLTYTCRDNKDCLIDKRQRNRCQYCRYQKCLAMGMKREAVQEE [K1F] | -0.217 ± 0.065
4 | CHICAICGDRSSGKHYGVYSCEGCKGFFKRTVRKDLTYTCRDNKDCLIDKRQRNRCQYCRYQKCLAMGMKREAVQEE [K1C] | -0.185 ± 0.053
5 | SHICAICGDRSSGKHYGVYSCEGCKGFFKRTVRKDLTYTCRDNKDCLIDKRQRNRCQYCRYQKCLAMGMKREAVQEE [K1S] | -0.299 ± 0.042
6 | YHICAICGDRSSGKHYGVYSCEGCKGFFKRTVRKDLTYTCRDNKDCLIDKRQRNRCQYCRYQKCLAMGMKREAVQEE [K1Y] | -0.119 ± 0.045
7 | RHICAICGDRSSGKHYGVYSCEGCKGFFKRTVRKDLTYTCRDNKDCLIDKRQRNRCQYCRYQKCLAMGMKREAVQEE [K1R] | -0.286 ± 0.055
8 | HHICAICGDRSSGKHYGVYSCEGCKGFFKRTVRKDLTYTCRDNKDCLIDKRQRNRCQYCRYQKCLAMGMKREAVQEE [K1H] | -0.222 ± 0.06
9 | VHICAICGDRSSGKHYGVYSCEGCKGFFKRTVRKDLTYTCRDNKDCLIDKRQRNRCQYCRYQKCLAMGMKREAVQEE [K1V] | -0.206 ± 0.042
10 | NHICAICGDRSSGKHYGVYSCEGCKGFFKRTVRKDLTYTCRDNKDCLIDKRQRNRCQYCRYQKCLAMGMKREAVQEE [K1N] | -0.024 ± 0.045
11 | WHICAICGDRSSGKHYGVYSCEGCKGFFKRTVRKDLTYTCRDNKDCLIDKRQRNRCQYCRYQKCLAMGMKREAVQEE [K1W] | -0.341 ± 0.076
12 | AHICAICGDRSSGKHYGVYSCEGCKGFFKRTVRKDLTYTCRDNKDCLIDKRQRNRCQYCRYQKCLAMGMKREAVQEE [K1A] | -0.531 ± 0.094
13 | THICAICGDRSSGKHYGVYSCEGCKGFFKRTVRKDLTYTCRDNKDCLIDKRQRNRCQYCRYQKCLAMGMKREAVQEE [K1T] | -0.435 ± 0.051
14 | DHICAICGDRSSGKHYGVYSCEGCKGFFKRTVRKDLTYTCRDNKDCLIDKRQRNRCQYCRYQKCLAMGMKREAVQEE [K1D] | -0.02 ± 0.05
15 | LHICAICGDRSSGKHYGVYSCEGCKGFFKRTVRKDLTYTCRDNKDCLIDKRQRNRCQYCRYQKCLAMGMKREAVQEE [K1L] | -0.333 ± 0.05
16 | MHICAICGDRSSGKHYGVYSCEGCKGFFKRTVRKDLTYTCRDNKDCLIDKRQRNRCQYCRYQKCLAMGMKREAVQEE [K1M] | -0.067 ± 0.05
17 | EHICAICGDRSSGKHYGVYSCEGCKGFFKRTVRKDLTYTCRDNKDCLIDKRQRNRCQYCRYQKCLAMGMKREAVQEE [K1E] | -0.117 ± 0.058
18 | KHSCAICGDRSSGKHYGVYSCEGCKGFFKRTVRKDLTYTCRDNKDCLIDKRQRNRCQYCRYQKCLAMGMKREAVQEE [I3S] | -0.127 ± 0.029
19 | KHCCAICGDRSSGKHYGVYSCEGCKGFFKRTVRKDLTYTCRDNKDCLIDKRQRNRCQYCRYQKCLAMGMKREAVQEE [I3C] | 0.022 ± 0.037

Row | Variant | abundance fitness
20 | KHDCAICGDRSSGKHYGVYSCEGCKGFFKRTVRKDLTYTCRDNKDCLIDKRQRNRCQYCRYQKCLAMGMKREAVQEE [I3D] | -0.059 ± 0.035
21 | KHFCAICGDRSSGKHYGVYSCEGCKGFFKRTVRKDLTYTCRDNKDCLIDKRQRNRCQYCRYQKCLAMGMKREAVQEE [I3F] | -0.06 ± 0.04
22 | KHVCAICGDRSSGKHYGVYSCEGCKGFFKRTVRKDLTYTCRDNKDCLIDKRQRNRCQYCRYQKCLAMGMKREAVQEE [I3V] | -0.3 ± 0.039
23 | KHKCAICGDRSSGKHYGVYSCEGCKGFFKRTVRKDLTYTCRDNKDCLIDKRQRNRCQYCRYQKCLAMGMKREAVQEE [I3K] | -0.144 ± 0.048
24 | KHWCAICGDRSSGKHYGVYSCEGCKGFFKRTVRKDLTYTCRDNKDCLIDKRQRNRCQYCRYQKCLAMGMKREAVQEE [I3W] | -0.404 ± 0.071
25 | KHHCAICGDRSSGKHYGVYSCEGCKGFFKRTVRKDLTYTCRDNKDCLIDKRQRNRCQYCRYQKCLAMGMKREAVQEE [I3H] | 0.017 ± 0.031
26 | KHTCAICGDRSSGKHYGVYSCEGCKGFFKRTVRKDLTYTCRDNKDCLIDKRQRNRCQYCRYQKCLAMGMKREAVQEE [I3T] | -0.008 ± 0.031
27 | KHGCAICGDRSSGKHYGVYSCEGCKGFFKRTVRKDLTYTCRDNKDCLIDKRQRNRCQYCRYQKCLAMGMKREAVQEE [I3G] | -0.28 ± 0.043
28 | KHRCAICGDRSSGKHYGVYSCEGCKGFFKRTVRKDLTYTCRDNKDCLIDKRQRNRCQYCRYQKCLAMGMKREAVQEE [I3R] | -0.218 ± 0.031
29 | KHACAICGDRSSGKHYGVYSCEGCKGFFKRTVRKDLTYTCRDNKDCLIDKRQRNRCQYCRYQKCLAMGMKREAVQEE [I3A] | -0.229 ± 0.033
30 | KHNCAICGDRSSGKHYGVYSCEGCKGFFKRTVRKDLTYTCRDNKDCLIDKRQRNRCQYCRYQKCLAMGMKREAVQEE [I3N] | -0.001 ± 0.033
31 | KHYCAICGDRSSGKHYGVYSCEGCKGFFKRTVRKDLTYTCRDNKDCLIDKRQRNRCQYCRYQKCLAMGMKREAVQEE [I3Y] | -0.058 ± 0.038
32 | KHLCAICGDRSSGKHYGVYSCEGCKGFFKRTVRKDLTYTCRDNKDCLIDKRQRNRCQYCRYQKCLAMGMKREAVQEE [I3L] | 0.009 ± 0.029
33 | KHQCAICGDRSSGKHYGVYSCEGCKGFFKRTVRKDLTYTCRDNKDCLIDKRQRNRCQYCRYQKCLAMGMKREAVQEE [I3Q] | -0.211 ± 0.045
34 | KHECAICGDRSSGKHYGVYSCEGCKGFFKRTVRKDLTYTCRDNKDCLIDKRQRNRCQYCRYQKCLAMGMKREAVQEE [I3E] | -0.428 ± 0.066
35 | KSICAICGDRSSGKHYGVYSCEGCKGFFKRTVRKDLTYTCRDNKDCLIDKRQRNRCQYCRYQKCLAMGMKREAVQEE [H2S] | 0.011 ± 0.043
36 | KIICAICGDRSSGKHYGVYSCEGCKGFFKRTVRKDLTYTCRDNKDCLIDKRQRNRCQYCRYQKCLAMGMKREAVQEE [H2I] | 0.189 ± 0.085
37 | KEICAICGDRSSGKHYGVYSCEGCKGFFKRTVRKDLTYTCRDNKDCLIDKRQRNRCQYCRYQKCLAMGMKREAVQEE [H2E] | 0.055 ± 0.051
38 | KCICAICGDRSSGKHYGVYSCEGCKGFFKRTVRKDLTYTCRDNKDCLIDKRQRNRCQYCRYQKCLAMGMKREAVQEE [H2C] | -0.267 ± 0.071
